Data: patent US7807397B2, “Diagnostic method for disorders using copeptin” (B.R.A.H.M.S Aktiengesellschaft, priority 2004, dated 2010)
Where two headings read alike, the source gives them in different places. Where no end group is shown, it is not given here.

How the values were obtained:
[1] = assay type: in vitro ADME, human
Protocol: The following assay buffer was used: 100 mM sodium phosphate, 150 mM NaCl, 5% bovine serum albumin, 0.1% unspecified sheep IgG, 0.1% sodium azide, pH 7.4.
As a standard material chemically synthesized peptide (peptide PAY 33) was used which corresponds to positions 132-164 of vasopressin-neurophysin 2-copeptin precursor. The standard was diluted in normal horse serum (Sigma). […]
In the test tubes 100 μl of standards or sample as well as 100 μl of assay buffer was pipetted. The tubes were incubated for two hours at 22° C. using gentle rotation. After washing 4 times with 1 ml of washing buffer (0.1% Tween 20), the supernatant was discarded. Then 200 μl of assay buffer, containing 1 million RLU (relative light units) of MA70-tagged antibody was added and incubated for a further two hours under gentle rotation at 22° C. After washing 4 times with 1 ml of washing buffer (0.1% Tween 20), the chemiluminescence bound to the tube was determined in a luminometer (Berthold, LB952T, basic reagents Brahms AG).
Using the software MULTICALC® (Spline Fit), the concentrations of the samples were determined.
The term copeptin immunoreactivity describes the amount of substrate detected by the developed sandwich immunoassay. The sandwich immunoassay uses antibodies raised against positions 132-147 and 149-164 of the vasopressin-neurophysin 2-copeptin-precursor for detection of the substrate. A typical standard curve for the developed assay is described in FIG. 1. Using the assay concentrations above 50 pg/ml copeptin immunoreactivity in plasma or serum can be determined quantitatively.

blood platelets = settings: reference [21]; cited from earlier work
[2] = reference [14]; cited from earlier work

Compound	Recovery (%) ([1]; plasma (n = 5), storage 1 d/4° C.)	Recovery (%) ([1]; plasma (n = 5), storage 1 d/RT)	Recovery (%) ([1]; plasma (n = 5), storage 2 d/4° C.)	Recovery (%) ([1]; plasma (n = 5), storage 2 d/RT)	Recovery (%) ([1]; serum (n = 3), storage 1 d/4° C.)	Recovery (%) ([1]; serum (n = 3), storage 1 d/RT)	Recovery (%) ([1]; serum (n = 3), storage 2 d/4° C.)	Recovery (%) ([1]; serum (n = 3), storage 2 d/RT)	fraction bound to blood platelets (blood platelets)	half-life in vivo [2]
copeptin: C-terminal glycoprotein of the VP prohormone, 39 amino acids plus sugar moiety; measured as endogenous copeptin immunoreactivity (ASDRSNATQLDGPAGALLLRLVQLAGAPEPFEPAQPDAY; also: glycosylated (sugar moiety); UniProt P01185 126-164, looked up)	103.4%	99.9%	101.6%	104.9%	98.0%	94.1%	99.2%	103.7%		
NC(=O)CC[C@@H]1NC(=O)[C@H](Cc2ccccc2)NC(=O)[C@H](Cc2ccc(O)cc2)NC(=O)[C@@H](N)CSSC[C@@H](C(=O)N2CCC[C@H]2C(=O)N[C@@H](CCCN=C(N)N)C(=O)NCC(N)=O)NC(=O)[C@H](CC(N)=O)NC1=O [vasopressin]									More than 90%	24 min
